The target in experiment [1] is T1, RACK1 (Rattus norvegicus, UniProt P63245).
T1 construct: an open reading frame of 317 amino acids from the putative translation start site of pRACK1; made in house; host or cells: TB1 E. coli (RACK1); PKC mixture from rat brain
Briefly: Overlay assay: concentration dependence of PKC binding to recombinant RACK1. Particulars: βPKC in the presence of other PKC isozymes, n=3. As to the method:
Purified recombinant RACK1 protein (100-250 μg per lane, produced as detailed in Example 2) was subjected to SDS/PAGE and blotted onto nitrocellulose membranes (Ausubel). The nitrocellulose membranes were cut into strips, which were incubated for 0.5 hr in overlay buffer (Example 1) in the presence or absence of a mixture of PKC isozymes (α, β, γ, δ, ε and ζ, ˜10 nM each final concentration) and PKC activators (60 μg/ml phosphatidylserine (PS), 2 μg/ml diacylglycerol (DG), and 1 mM CaCl2). Unbound material was removed by five washes, 5-min each, in overlay wash buffer. Where indicated, PKC activators were present during the incubation of PKC with the nitrocellulose strips. The conditions for each sample and corresponding results are presented in part D below.
PKC bound to RACK1 immobilized on nitrocellulose strips was detected as follows. […]
The concentration dependence of PKC binding to RACK1 was characterized with βPKC , since this isozyme is a major component of the PKC mixture used for the overlay assay. The mean half maximal binding was ˜0.375 nM, and maximal binding was ˜4 nM (n=3; values reflect binding of βPKC isozyme in the presence of other PKC isozymes and was determined by scanning autoradiograms in the linear range of detection, as described in Mochly-Rosen, et al., (1991).

Experiment [2] addresses mixture of rat brain PKC isozymes (α, β, γ, δ, ε and ζ) (rat). Briefly: overlay plus overlay-extraction assay; 10 µM peptide preincubated with PKC isozyme mixture (~10 nM each); immobilized RACK1.
The target of experiment [3] is T2, βPKC (rat brain protein kinase C, β isozyme) (rat, UniProt P68403 2-671).
T2 construct: also called beta PKC; βPKC isozyme
Briefly: slot-blot PKC overlay of immobilized peptide, with PS, DG and calcium, anti-βPKC detection.

For experiment [4], the target named is mixture of rat brain PKC isozymes (α, β, γ, δ, ε and ζ) (rat). Briefly: cell-based or functional assay.

Consider “βPKC: β isozyme of protein kinase C, major component of the rat brain PKC mixture”, for which the “maximal binding to RACK1” value in experiment [1] is on record as roughly 4 nM. Moreover, the Kd in experiment [1] (read-out: mean half maximal binding to RACK1) was roughly 0.375 nM.

B1: peptide I (peptide)
peptide: KGDYEKILVALCGGN
Consider B1, for which the % inhibition of PKC binding to recombinant RACK1 in experiment [2] turned out to be 81%.

B2: control peptide (peptide)
peptide: LKGKIL
On to B2, for which the binding result in experiment [3] is listed as “no binding”.

B3: peptide rVI (peptide)
peptide: DIINALCF
In the case of B3, the PKC autophosphorylation in the absence of PKC activators in experiment [4] is greater than 80%.
